According to patent US7455998B2, “Methods for forming structurally defined organic molecules” (Dow Corning Corporation, priority 2004, dated 2008):
≈ marks a conversion by molar mass, not a printed value. Each block holds one molecule with its values, some of them ahead of it.

Key:
trypsin [1] = target: T1, trypsin (Bos taurus, UniProt P00760); conditions: neutral medium (pH 7.0) and toluene
T1 sequence (P00760 24-246): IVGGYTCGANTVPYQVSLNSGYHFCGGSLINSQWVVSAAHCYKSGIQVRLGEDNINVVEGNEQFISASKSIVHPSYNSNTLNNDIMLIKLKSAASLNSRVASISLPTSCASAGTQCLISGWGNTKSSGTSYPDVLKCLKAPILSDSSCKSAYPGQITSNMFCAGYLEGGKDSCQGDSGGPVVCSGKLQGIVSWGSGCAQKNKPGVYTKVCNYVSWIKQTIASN

[2] = Estimated solubility in water
trypsin [3] = target: T1, trypsin; assay: Trypsin-catalyzed hydrolysis and condensation of alkoxysilanes; type: biochemical, bovine; parameters: purchased Sigma-Aldrich #T4665; host or cells: bovine pancreas
trypsin [4] = target: T1, trypsin; assay: Trypsin-catalyzed polycondensation, seven days; type: biochemical, bovine; parameters: purchased Sigma-Aldrich #T4665; host or cells: bovine pancreas; conditions: 25° C.
trypsin [5] = target: T1, trypsin; assay: Standard enzymatic activity assay of inhibited trypsin; type: biochemical, bovine; parameters: purchased Sigma-Aldrich #T4665; host or cells: bovine pancreas; conditions: excess inhibitor (4:1 BBI, 2:1 PCI to protease mole ratio), pH 7.0, two hours
Method: Since α-chymotrypsin was inhibited by PCI, the presence of trypsin in α-chymotrypsin was confirmed. […] .
A proteinaceous inhibition study was conducted to investigate the role of the enzymatic active site in the hydrolysis and condensation of trimethylethoxysilane.

α-chymotrypsin = target: T2, α-chymotrypsin (Bos taurus, UniProt P00766); assay: Standard enzymatic activity assay of inhibited α-chymotrypsin; type: biochemical, bovine; conditions: excess inhibitor (4:1 BBI to protease mole ratio), pH 7.0, two hours
T2 construct: purchased Sigma-Aldrich #C-4129; host or cells: bovine pancreas
Excerpt: Since α-chymotrypsin was inhibited by PCI, the presence of trypsin in α-chymotrypsin was confirmed. In addition, condensation was not observed despite the partial inhibition of α-chymotrypsin with BBI.

trypsin [6] = target: T1, trypsin; assay: Proteinaceous inhibition of the trimethylethoxysilane reaction; type: biochemical, bovine; parameters: purchased Sigma-Aldrich #T4665; host or cells: bovine pancreas; conditions: 25° C., three hours, pH 7.0
Method: A proteinaceous inhibition study was conducted to investigate the role of the enzymatic active site in the hydrolysis and condensation of trimethylethoxysilane. […] .

[7] = Protease-catalyzed condensation study after three hours; type: biochemical; conditions: pH 7.0, three hours
Method: In comparison to control reactions, the ability of the proteases detailed in Table 3 to catalyse siloxane condensation was screened with […]. Comparatively, the original reactions conducted in the enzyme-catalysed condensation study were performed for six days versus three hours in this study.
Prior to reaction, the glass vials were silylated. […].
TLCK inhibits trypsin by alkylating the histidine residue in the catalytic triad.

[8] = Hydrolysis and condensation of trimethylethoxysilane by different sources of trypsin; effect of calcium; type: biochemical; conditions: 20 mM CaCl2, pH 7.0, 25° C., three hours
Excerpt: Although various sources (e.g. mammalian, fish) of trypsin are similar (e.g. tertiary structure), their selectivity and activity may be different. […] . The reaction products were isolated and quantitatively analysed by GC (FIG. 24).
Calcium activation of trypsin induces changes in the tertiary structure of the enzyme. […] . […] The reaction products were isolated and quantitatively analysed by GC (FIG. 25).

[9] = Temperature and pH studies of the trypsin-catalyzed condensation of trimethylsilanol; type: biochemical
Method: The effect of temperature on trypsin as well as the enzyme-catalyzed condensation reaction was studied. Prior to reaction, buffered aqueous solutions (pH 7.0) of trypsin were stirred and equilibrated at set temperatures in a thermostated water bath (+/−0.1° C.) for 20 minutes. […] In the thermal denaturation experiments, trypsin was boiled for 20 minutes and three hours in 50 mM Tris-HCl buffered Milli-Q water (pH 7.0), independently, before performing the condensation reaction at 25° C.
. […] Based on the chromatographic data, the enzyme-catalyzed condensation reaction was dependent on the pH. The silanol condensation reaction was optimum at pH 7.0.

[10] = Enzyme-catalyzed condensation study after six days; type: biochemical
Excerpt: This study was directed to an enzyme screen with […] in order to evaluate the ability of various enzymes to catalyze the formation of a siloxane bond. Based on the similarities of the proteins isolated from the Tethya aurantia marine sponge (silicatein), Cylindrotheca fusiformis diatom (silaffin), and Equisetum telmateia plant (biopolymer extract), a series of lipases and serine-proteases were selected as homologous proteolytic enzymes. […] […]. In this study, control reactions were defined as non-enzymatic reactions. Specifically, experiments conducted in the absence of a protein were defined as negative control reactions. Proteinaceous molecules such as bovine serum albumin and porcine γ-globulins were used to study non-specific protein catalysis.
[…]. […] (˜200 mg/mL).

Molecule: C[Si](C)(C)O[Si](C)(C)C [hexamethyldisiloxane]
trypsin-catalyzed hydrolysis of the siloxane bond (reverse reaction) (trypsin [1]): not observed to catalyze the hydrolysis of a siloxane bond

Molecule: CCO[Si](C)(C)C [trimethylethoxysilane]
solubility [2]: 1 mg/mL (≈ 8.46 mM)
trypsin-catalyzed hydrolysis and condensation (result in words) (trypsin [3]; 4:1 monomer to enzyme weight ratio, 25° C., three hours): preferentially catalyze the hydrolysis and condensation
relative turnover number of hydrolysis (trypsin [3]; 10° C.): 0.53 s⁻¹
condensed in the presence of trypsin (trypsin [3]; pH 7.0, 25° C., three hours): 84%
hydrolysed in the presence of trypsin (trypsin [3]; pH 7.0, 25° C., three hours): 100%

Molecule: CCO[Si](C)(OCC)OCC [methyltriethoxysilane]
trypsin-catalyzed polycondensation (result in words) (trypsin [4]): promoted the complete hydrolysis and, subsequent, polycondensation

inhibition of trypsin (trypsin [5]): 98%
inhibition of α-chymotrypsin (α-chymotrypsin): 63%
decrease of percent hydrolysis of trimethylethoxysilane with inhibited trypsin (trypsin [6]): 24%
B1: BBI: trypsin-chymotrypsin inhibitor from soybean, 71 amino acids (protein, UniProt P01055 40-110, looked up)
Bowman-Birk type proteinase …: DDESSKPCCDQCACTKSNPPQCRCSDMRLNSCHSACKSCICALSYPAQCFCVDITDFCYEPCKPSEDDKEN

B2: trypsin: bovine pancreatic trypsin, commercial preparation (protein, UniProt P00760 24-246, looked up)
Serine protease 1: T1 sequence (P00760 24-246)
condensation of trimethylsilanol (result in words) [7]: preferentially catalyzed the condensation
increase of yield of the condensation of trimethylsilanol with calcium [8]: did not change
optimum pH of the silanol condensation reaction ([9]; 25° C., three hours, pH 4.0 to pH 10.0): 7.0
optimum temperature of the condensation reaction ([9]; pH 7.0, three hours): approximately 25 °C
condensation of trimethylsilanol, Buffered pH 7 ([10]; 50 mM Tris-HCl pH 7.0, 25° C.): ✓ (determined to catalyse the condensation of greater than ten times more trimethylsilanol than the negative control reactions; as well as, greater than three or ten times more trimethylsilanol than the BSA reactions in organic and aqueous media, respectively)
condensation of trimethylsilanol, Dry Toluene ([10]; dry toluene, 25° C.): ✓ (determined to catalyse the condensation of greater than ten times more trimethylsilanol than the negative control reactions; as well as, greater than three or ten times more trimethylsilanol than the BSA reactions in organic and aqueous media, respectively)
condensation of trimethylsilanol, Water ([10]; water, 25° C.): ✓ (determined to catalyse the condensation of greater than ten times more trimethylsilanol than the negative control reactions; as well as, greater than three or ten times more trimethylsilanol than the BSA reactions in organic and aqueous media, respectively)
condensation of trimethylsilanol, Wet Toluene ([10]; wet toluene, 25° C.): ✓ (determined to catalyse the condensation of greater than ten times more trimethylsilanol than the negative control reactions; as well as, greater than three or ten times more trimethylsilanol than the BSA reactions in organic and aqueous media, respectively)

inhibition of trypsin (trypsin [5]): 91%
decrease of percent hydrolysis of trimethylethoxysilane with inhibited trypsin (trypsin [6]): 6%
B3: PCI: trypsin inhibitor from Glycine max, 181 amino acids (protein, UniProt P01070 25-205, looked up)
Trypsin inhibitor A: DFVLDNEGNPLENGGTYYILSDITAFGGIRAAPTGNERCPLTVVQSRNELDKGIGTIISSPYRIRFIAEGHPLSLKFDSFAVIMLCVGIPTEWSVVEDLPEGPAVKIGENKDAMDGWFRLERVSDDEFNNYKLVFCPQQAEDDKCGDIGISIDHDDGTRRLVVSKNKPLVVQFQKLDKESL
